Measured values taken from publication doi:10.1101/671792.

Biological target: polymerization-deficient p62 PB1 domain D69A/D73A (human) (UniProt Q13501)
Assay: ITC

Kd: 26.8 nM
B1: MEKK3 PB1 domain, residues 43-127 (ITC) (domain or fragment)
chain: SDVRIKFEHNGERRIIAFSRPVKYEDVEHKVTTVFGQPLDLHYMNNELSILLKNQDDLDKAIDILDRSSSMKSLRILLLSQDRNH
